Measurements as given in patent US20210388110A1 (published 2021).
Substitutions are numbered along the chain they refer to.

B1: TR01H015-E22Hh/none-Hi-Kn010G3/TR01L003-k0 (antibody, human IgG1, kappa, L234A L235A, N297A)
heavy: QVQLVESGGGLVQPGRSLRLSCAASGFTFSNAWMHWVRQAPGKGLEWVAQIKGKSNNYATYYAESVKGRFTISRADSKNSIYLQMNSLKTEDTAVYYCRYVHYSASYGVDIWGQGTTVTVSSASTKGPSVFPLAPSSKSTSGGTAALGCLVKDYFPEPVTVSWNSGALTSGVHTFPAVLQSSGLYSLSSVVTVPSSSLGTQTYICNVNHKPSNTKVDKKVEPKSCDKTHTCPPCPAPEAAGGPSVFLFPPKPKDTLMISRTPEVTCVVVDVSHEDPEVKFNWYVDGVEVHNAKTKPREEQYASTYRVVSVLTVLHQDWLNGKEYKCKVSNKALPAPIEKTISKAKGQPREPQVYTLPPSRCELTKNQVSLSCAVKGFYPSDIAVEWESNGQPENNYKTTPPVLDSDGSFFLVSKLTVDKSRWQQGNVFSCSVMHEALHNHYTQKSLSLSPDYKDDDDK
chain: EPKSSDKTHTCPPCPAPELLGGPSVFLFPPKPKDTLMISRTPEVTCVVVDVSHEDPEVKFNWYVDGVEVHNAKTKPREEQYNSTYRVVSVLTVLHQDWLNGKEYKCKVSNKALPAPIEKTISKAKGQPREPQVCTLPPSRDELTKNQVSLWCLVKGFYPSDIAVEWESNGQPENNYKTTPPVLDSDGSFFLYSKLTVDKSRWQQGNVFSCSVMHEALHNRYTQKSLSLSP
light: DIVMTQSPLSLPVTPGEPASISCRSSQSLVHSNRNTYLHWYQQKPGQAPRLLIYKVSNRFSGVPDRFSGSGSGTDFTLKISRVEAEDVGVYYCGQGTQVPYTFGQGTKVEIERTVAAPSVFIFPPSDEQLKSGTASVVCLLNNFYPREAKVQWKVDNALQSGNSQESVTEQDSKDSTYSLSSTLTLSKADYEKHKVYACEVTHQGLSSPVTKSFNRGEC
notes: single-arm
B2: TR01H026-E22Hh/none-Hi-Kn010G3/L0000-k0 (antibody, human IgG1, kappa, L234A L235A, N297A)
heavy: B1 heavy with R16G, G53S, N56Q
chain: B1 chain
light: B1 light with V109L, E112K
notes: single-arm
B3: TR01H032-E22Hh/none-Hi-Kn010G3/L0000-k0 (antibody, human IgG1, kappa, L234A L235A, N297A)
heavy: B1 heavy with G53S, N56Q, I111A
chain: B1 chain
light: B1 light with V109L, E112K
notes: single-arm
B4: TR01H025-E22Hh/none-Hi-Kn010G3/L0000-k0 (antibody, human IgG1, kappa, L234A L235A, N297A)
heavy: B1 heavy with G53S, N56Q
chain: B1 chain
light: B1 light with V109L, E112K
notes: single-arm
B5: TR01H040-E22Hh/none-Hi-Kn010G3/L0202-k0 (antibody, human IgG1, kappa, L234A L235A, N297A)
heavy: B1 heavy with G53D, N56Q, I111A
chain: B1 chain
light: B1 light with L29P, N35W, V109L, E112K
notes: single-arm
B6: TR01H038-E22Hh/none-Hi-Kn010G3/L0000-k0 (antibody, human IgG1, kappa, L234A L235A, N297A)
heavy: B1 heavy with G53D
chain: B1 chain
light: B1 light with V109L, E112K
notes: single-arm
B7: TR01H029-E22Hh/none-Hi-Kn010G3/L0000-k0 (antibody, human IgG1, kappa, L234A L235A, N297A)
heavy: B1 heavy with A23S
chain: B1 chain
light: B1 light with V109L, E112K
notes: single-arm
B8: TR01H017-E22Hh/none-Hi-Kn010G3/L0000-k0 (antibody, human IgG1, kappa, L234A L235A, N297A)
heavy: B1 heavy with R16G, G53A, S104G, S106Y
chain: B1 chain
light: B1 light with V109L, E112K
notes: single-arm
B9: TR01H039-E22Hh/none-Hi-Kn010G3/L0000-k0 (antibody, human IgG1, kappa, L234A L235A, N297A)
heavy: B1 heavy with G53D, N56Q
chain: B1 chain
light: B1 light with V109L, E112K
notes: single-arm
B10: TR01H030-E22Hh/none-Hi-Kn010G3/L0000-k0 (antibody, human IgG1, kappa, L234A L235A, N297A)
heavy: B1 heavy with L11V
chain: B1 chain
light: B1 light with V109L, E112K
notes: single-arm
B11: TR01H037-E22Hh/none-Hi-Kn010G3/L0000-k0 (antibody, human IgG1, kappa, L234A L235A, N297A)
heavy: B1 heavy with H35P
chain: B1 chain
light: B1 light with V109L, E112K
notes: single-arm
B12: TR01H040-E22Hh/none-Hi-Kn010G3/L0213-k0 (antibody, human IgG1, kappa, L234A L235A, N297A)
heavy: B1 heavy with G53D, N56Q, I111A
chain: B1 chain
light: B1 light with L29P, L38I, S61R, V109L, E112K
notes: single-arm
B13: TR01H040-E22Hh/none-Hi-Kn010G3/L0208-k0 (antibody, human IgG1, kappa, L234A L235A, N297A)
heavy: B1 heavy with G53D, N56Q, I111A
chain: B1 chain
light: B1 light with L29P, S61W, G94Y, V109L, E112K
notes: single-arm
B14: TR01H040-E22Hh/none-Hi-Kn010G3/L0203-k0 (antibody, human IgG1, kappa, L234A L235A, N297A)
heavy: B1 heavy with G53D, N56Q, I111A
chain: B1 chain
light: B1 light with L29P, L38I, V109L, E112K
notes: single-arm
B15: TR01H036-E22Hh/none-Hi-Kn010G3/L0000-k0 (antibody, human IgG1, kappa, L234A L235A, N297A)
heavy: B1 heavy with I111Y
chain: B1 chain
light: B1 light with V109L, E112K
notes: single-arm
B16: TR01H040-E22Hh/none-Hi-Kn010G3/L0207-k0 (antibody, human IgG1, kappa, L234A L235A, N297A)
heavy: B1 heavy with G53D, N56Q, I111A
chain: B1 chain
light: B1 light with L29P, S61R, G94Y, V109L, E112K
notes: single-arm
B17: TR01H028-E22Hh/none-Hi-Kn010G3/L0000-k0 (antibody, human IgG1, kappa, L234A L235A, N297A)
heavy: B1 heavy with L11V, R16G, G53S, N56Q
chain: B1 chain
light: B1 light with V109L, E112K
notes: single-arm
B18: TR01H019-E22Hh/none-Hi-Kn010G3/L0000-k0 (antibody, human IgG1, kappa, L234A L235A, N297A)
heavy: B1 heavy with N56Q
chain: B1 chain
light: B1 light with V109L, E112K
notes: single-arm
B19: TR01H033-E22Hh/none-Hi-Kn010G3/L0000-k0 (antibody, human IgG1, kappa, L234A L235A, N297A)
heavy: B1 heavy with G53S, N56Q, I111Y
chain: B1 chain
light: B1 light with V109L, E112K
notes: single-arm
B20: TR01H040-E22Hh/none-Hi-Kn010G3/L0204-k0 (antibody, human IgG1, kappa, L234A L235A, N297A)
heavy: B1 heavy with G53D, N56Q, I111A
chain: B1 chain
light: B1 light with L29P, S61R, V109L, E112K
notes: single-arm
B21: TR01H040-E22Hh/none-Hi-Kn010G3/L0205-k0 (antibody, human IgG1, kappa, L234A L235A, N297A)
heavy: B1 heavy with G53D, N56Q, I111A
chain: B1 chain
light: B1 light with L29P, S61W, V109L, E112K
notes: single-arm
B22: TR01H040-E22Hh/none-Hi-Kn010G3/L0215-k0 (antibody, human IgG1, kappa, L234A L235A, N297A)
heavy: B1 heavy with G53D, N56Q, I111A
chain: B1 chain
light: B1 light with S28P, L29P, L38I, V109L, E112K
notes: single-arm
B23: TR01H040-E22Hh/none-Hi-Kn010G3/L0211-k0 (antibody, human IgG1, kappa, L234A L235A, N297A)
heavy: B1 heavy with G53D, N56Q, I111A
chain: B1 chain
light: B1 light with S28P, L29P, G94Y, V109L, E112K
notes: single-arm
B24: TR01H040-E22Hh/none-Hi-Kn010G3/L0011-k0 (antibody, human IgG1, kappa, L234A L235A, N297A)
heavy: B1 heavy with G53D, N56Q, I111A
chain: B1 chain
light: B1 light with S28P, V109L, E112K
notes: single-arm
B25: TR01H016-E22Hh/none-Hi-Kn010G3/L0000-k0 (antibody, human IgG1, kappa, L234A L235A, N297A)
heavy: B1 heavy with A105Y
chain: B1 chain
light: B1 light with V109L, E112K
notes: single-arm
B26: TR01H027-E22Hh/none-Hi-Kn010G3/L0000-k0 (antibody, human IgG1, kappa, L234A L235A, N297A)
heavy: B1 heavy with R16G, G53S, N56Q, I111A
chain: B1 chain
light: B1 light with V109L, E112K
notes: single-arm
B27: TR01H015-E22Hh/none-Hi-Kn010G3/TR01L005-k0 (antibody, human IgG1, kappa, L234A L235A, N297A)
heavy: B1 heavy
chain: B1 chain
light: B1 light with Q42L, A48S, R50Q
notes: single-arm
B28: TR01H040-E22Hh/none-Hi-Kn010G3/L0200-k0 (antibody, human IgG1, kappa, L234A L235A, N297A)
heavy: B1 heavy with G53D, N56Q, I111A
chain: B1 chain
light: B1 light with S25P, L29P, V109L, E112K
notes: single-arm
B29: TR01H040-E22Hh/none-Hi-Kn010G3/L0214-k0 (antibody, human IgG1, kappa, L234A L235A, N297A)
heavy: B1 heavy with G53D, N56Q, I111A
chain: B1 chain
light: B1 light with S28P, L29P, S61R, V109L, E112K
notes: single-arm
B30: TR01H020-E22Hh/none-Hi-Kn010G3/L0000-k0 (antibody, human IgG1, kappa, L234A L235A, N297A)
heavy: B1 heavy with E64P
chain: B1 chain
light: B1 light with V109L, E112K
notes: single-arm
B31: TR01H040-E22Hh/none-Hi-Kn010G3/L0209-k0 (antibody, human IgG1, kappa, L234A L235A, N297A)
heavy: B1 heavy with G53D, N56Q, I111A
chain: B1 chain
light: B1 light with L29P, L38I, G94Y, V109L, E112K
notes: single-arm
B32: TR01H018-E22Hh/none-Hi-Kn010G3/L0000-k0 (antibody, human IgG1, kappa, L234A L235A, N297A)
heavy: B1 heavy with R16G
chain: B1 chain
light: B1 light with V109L, E112K
notes: single-arm
B33: TR01H040-E22Hh/none-Hi-Kn010G3/L0201-k0 (antibody, human IgG1, kappa, L234A L235A, N297A)
heavy: B1 heavy with G53D, N56Q, I111A
chain: B1 chain
light: B1 light with S28P, L29P, V109L, E112K
notes: single-arm
B34: TR01H040-E22Hh/none-Hi-Kn010G3/L0212-k0 (antibody, human IgG1, kappa, L234A L235A, N297A)
heavy: B1 heavy with G53D, N56Q, I111A
chain: B1 chain
light: B1 light with S25P, L29P, G94Y, V109L, E112K
notes: single-arm
B35: TR01H040-E22Hh/none-Hi-Kn010G3/L0210-k0 (antibody, human IgG1, kappa, L234A L235A, N297A)
heavy: B1 heavy with G53D, N56Q, I111A
chain: B1 chain
light: B1 light with L29P, N35W, G94Y, V109L, E112K
notes: single-arm
B36: TR01H040-E22Hh/none-Hi-Kn010G3/L0206-k0 (antibody, human IgG1, kappa, L234A L235A, N297A)
heavy: B1 heavy with G53D, N56Q, I111A
chain: B1 chain
light: B1 light with L29P, G94Y, V109L, E112K
notes: single-arm

Target: T1, soluble human CD3ε chain (human, UniProt P07766 23-126, limits assumed)
T1 construct: the text says soluble human CD3ε chain; also called human CD3 epsilon chain
Experiment: SPR (Biacore)

T1 sequence (P07766 23-126 limits assumed): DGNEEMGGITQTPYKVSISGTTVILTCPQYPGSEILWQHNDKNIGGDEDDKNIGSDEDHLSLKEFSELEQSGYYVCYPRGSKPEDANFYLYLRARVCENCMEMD

| Binder | Kd |
| --- | --- |
| B1 | 63.4 nM |
| B2 | 51.2 nM |
| B3 | 57.3 nM |
| B4 | 38.6 nM |
| B5 | 61.9 nM |
| B6 | 12.4 nM |
| B7 | 67 nM |
| B8 | 35 nM |
| B9 | 26.1 nM |
| B10 | 65.4 nM |
| B11 | 6.93 nM |
| B12 | 20.1 nM |
| B13 | 4.16 nM |
| B14 | 32.4 nM |
| B15 | 65 nM |
| B16 | 2.6 nM |
| B17 | 48 nM |
| B18 | 68.5 nM |

| Binder | Kd |
| --- | --- |
| B19 | 48.8 nM |
| B20 | 22.1 nM |
| B21 | 34.2 nM |
| B22 | 33.7 nM |
| B23 | 3.22 nM |
| B24 | 34.8 nM |
| B25 | 36.9 nM |
| B26 | 69.5 nM |
| B27 | 65.3 nM |
| B28 | 28.7 nM |
| B29 | 20.2 nM |
| B30 | 64.8 nM |
| B31 | 4.25 nM |
| B32 | 69.3 nM |
| B33 | 28.1 nM |
| B34 | 2.17 nM |
| B35 | 5.06 nM |
| B36 | 2.9 nM |
